Experimental data taken from publication PMC11783328.

Legend:
[1] = molecular target: BG505 SOSIP.v4.1 GT1.1 trimer (BG505 SOSIP germline trimer 1.1) (HIV-1 (isolate BG505)) (UniProt Q2N0S6); experiment: SPR; Biacore 3000; His-tagged GT1 and GT1.1 trimers captured in parallel flow cells, IgG injected from 1 μM in two- or four-fold dilutions; association 300 s, dissociation 600 s, 50 uL/min; bivalent model
[2] = molecular target: PGV19 germline (gl-PGV19); experiment: SPR; settings: antibody dilution series, colour key 0.98-1000 nM; KD1 fitted by bivalent modeling
[3] = molecular target: VRC01 germline (gl-VRC01); experiment: SPR; settings: antibody dilution series, colour key 0.98-1000 nM; KD1 fitted by bivalent modeling
3BNC60 mature = experiment: SPR; settings: antibody dilution series, colour key 0.98-1000 nM; KD1 fitted by bivalent modeling
[4] = molecular target: gl-3BNC60 IgG (inferred germline precursor of 3BNC60); experiment: SPR; settings: antibody dilution series, colour key 0.98-1000 nM; KD1 fitted by bivalent modeling; parent: ND
[5] = molecular target: 12A12 germline (gl-12A12); experiment: SPR; settings: antibody dilution series, colour key 0.98-1000 nM; KD1 fitted by bivalent modeling; parent: ND

Sequence of gl-3BNC60 IgG (inferred germline precursor of 3BNC60) (antibody) (VH): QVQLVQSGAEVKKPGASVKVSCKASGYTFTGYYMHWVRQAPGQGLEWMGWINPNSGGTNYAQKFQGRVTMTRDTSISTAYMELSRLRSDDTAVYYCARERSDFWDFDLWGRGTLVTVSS
Sequence of gl-3BNC60 IgG (inferred germline precursor of 3BNC60) (antibody) (VL): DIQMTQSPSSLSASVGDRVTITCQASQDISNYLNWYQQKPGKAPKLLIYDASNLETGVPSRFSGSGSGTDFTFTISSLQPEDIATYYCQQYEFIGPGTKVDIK

Substance “gl-3BNC60 IgG (inferred germline precursor of 3BNC60) (antibody)” has a KD1 (bivalent model) [1] of 780 nM.
“BG505 SOSIP.v4.1-GT1 trimer (from UniProt Q2N0S6) E275K” was tested, and the Kd [2] was 24 nM, the Kd [3] was 360 nM and the Kd (3BNC60 mature) was < 0.1 nM. For the same substance, the Kd [4] was 780 nM and the Kd [5] was 200 nM.
